Results on twelve molecules are retold here after patent US20200199241A1 (Chugai, published 2020).

This assay has as its target T1, human FcRn (soluble human FcRn complexed with β2-microglobulin) (human, UniProt P61769 21-119, limits assumed).
T1 construct: also called hFcRn
The experiment in a line: SPR, pH 7.0.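 Further: antibodies captured on a Protein L sensor chip with human FcRn injected as analyte, KD calculated from fitted association and dissociation rate constants.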

T1 sequence (chain, as listed by the source limits assumed, chain 1 of 2): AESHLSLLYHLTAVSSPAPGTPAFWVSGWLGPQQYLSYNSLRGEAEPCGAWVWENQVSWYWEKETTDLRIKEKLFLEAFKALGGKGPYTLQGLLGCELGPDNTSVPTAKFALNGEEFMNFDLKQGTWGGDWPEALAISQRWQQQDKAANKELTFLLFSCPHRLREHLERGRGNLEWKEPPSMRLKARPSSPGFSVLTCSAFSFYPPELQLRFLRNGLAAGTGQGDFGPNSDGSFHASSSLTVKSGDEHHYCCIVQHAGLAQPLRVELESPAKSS
T1 sequence (P61769 21-119 limits assumed, chain 2 of 2): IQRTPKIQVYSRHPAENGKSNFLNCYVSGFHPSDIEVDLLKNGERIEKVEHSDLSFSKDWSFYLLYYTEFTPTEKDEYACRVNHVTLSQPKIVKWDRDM

B1: IgG1-F21 (antibody)
heavy: QVQLQESGPGLVKPSETLSLTCAVSGHSISHDHAWSWVRQPPGEGLEWIGFISYSGITNYNPSLQGRVTISRDNSKNTLYLQMNSLRAEDTAVYYCARSLARTTAMDYWGEGTLVTVSSASTKGPSVFPLAPSSKSTSGGTAALGCLVKDYFPEPVTVSWNSGALTSGVHTFPAVLQSSGLYSLSSVVTVPSSSLGTQTYICNVNHKPSNTKVDKKVEPKSCDKTHTCPPCPAPELLGGPSVFLFPPKPKDTLYISRTPEVTCVVVDVSHEDPEVKFNWYVDGVEVHNAKTKPREEQYNSTYRVVSVLTPLHQDWLNGKEYKCKVSNKALPAPIEKTISKAKGQPREPQVYTLPPSRDELTKNQVSLTCLVKGFYPSDIAVEWESNGQPENNYKTTPPVLDSDGSFFLYSKLTVDKSRWQQGNVFSCSVMHEALHYHYTQKSLSLSP
light: not shown
notes: copies: 2 + 2
In general, Kd refers to the constant that tells how readily two partners part at equilibrium. A low value points to higher affinity. Molecule B1 returned a Kd of 30 nM.

B2: IgG1-F42 (antibody)
heavy: QVQLQESGPGLVKPSETLSLTCAVSGHSISHDHAWSWVRQPPGEGLEWIGFISYSGITNYNPSLQGRVTISRDNSKNTLYLQMNSLRAEDTAVYYCARSLARTTAMDYWGEGTLVTVSSASTKGPSVFPLAPSSKSTSGGTAALGCLVKDYFPEPVTVSWNSGALTSGVHTFPAVLQSSGLYSLSSVVTVPSSSLGTQTYICNVNHKPSNTKVDKKVEPKSCDKTHTCPPCPAPELLGGPSVFLFPPKPKDTLYITREPEVTCVVVDVSHEDPEVKFNWYVDGVEVHNAKTKPREEQYNSTYRVVSVLTVLHQDWLNGKEYKCKVSNKALPAPIEKTISKAKGQPREPQVYTLPPSRDELTKNQVSLTCLVKGFYPSDIAVEWESNGQPENNYKTTPPVLDSDGSFFLYSKLTVDKSRWQQGNVFSCSVMHEALHAHYTQKSLSLSP
light: not shown
notes: EU numbering; copies: 2 + 2
Molecule B2 came in with a Kd of 1000 nM.

B3: IgG1-F72 (antibody)
heavy: QVQLQESGPGLVKPSETLSLTCAVSGHSISHDHAWSWVRQPPGEGLEWIGFISYSGITNYNPSLQGRVTISRDNSKNTLYLQMNSLRAEDTAVYYCARSLARTTAMDYWGEGTLVTVSSASTKGPSVFPLAPSSKSTSGGTAALGCLVKDYFPEPVTVSWNSGALTSGVHTFPAVLQSSGLYSLSSVVTVPSSSLGTQTYICNVNHKPSNTKVDKKVEPKSCDKTHTCPPCPAPELLGGPSVFLFPPKPKDTLYITREPEVTCVVVDVSHEDPEVKFNWYVDGVEVHNAKTKPREEQYNSTYRVVSVLTVLHQDWLNGKEYKCKVSNKALPAPIEKTISKAKGQPREPQVYTLPPSRDELTKNQVSLTCLVKGFYPSDIAVEWESNGQPENNYKTTPPVLDSDGSFFLYSKLTVDKSRWQQGNVFSCSVLHEALHYHYTQKSLSLSP
light: not shown
notes: EU numbering; copies: 2 + 2
Turning to B3, the Kd is 200 nM.

B4: IgG1-F77 (antibody)
heavy: QVQLQESGPGLVKPSETLSLTCAVSGHSISHDHAWSWVRQPPGEGLEWIGFISYSGITNYNPSLQGRVTISRDNSKNTLYLQMNSLRAEDTAVYYCARSLARTTAMDYWGEGTLVTVSSASTKGPSVFPLAPSSKSTSGGTAALGCLVKDYFPEPVTVSWNSGALTSGVHTFPAVLQSSGLYSLSSVVTVPSSSLGTQTYICNVNHKPSNTKVDKKVEPKSCDKTHTCPPCPAPELLGGPSVFLFPPKPKDTLMISREPEVTCVVVDVSHEDPEVKFNWYVDGVEVHNAKTKPREEQYNSTYRVVSVLTVLHQDWLNGKEYKCKVSNKALPAPIEKTISKAKGQPREPQVYTLPPSRDELTKNQVSLTCLVKGFYPSDIAVEWESNGQPENNYKTTPPVLDSDGSFFLYSKLTVDKSRWQQGNVFSCSVLHEALHYHYTQKSLSLSP
light: not shown
notes: EU numbering; copies: 2 + 2
B4 registered a Kd of 990 nM.

B5: IgG1-F38 (antibody)
heavy: QVQLQESGPGLVKPSETLSLTCAVSGHSISHDHAWSWVRQPPGEGLEWIGFISYSGITNYNPSLQGRVTISRDNSKNTLYLQMNSLRAEDTAVYYCARSLARTTAMDYWGEGTLVTVSSASTKGPSVFPLAPSSKSTSGGTAALGCLVKDYFPEPVTVSWNSGALTSGVHTFPAVLQSSGLYSLSSVVTVPSSSLGTQTYICNVNHKPSNTKVDKKVEPKSCDKTHTCPPCPAPELLGGPSVFLFPPKPKDTLYITRTPEVTCVVVDVSHEDPEVKFNWYVDGVEVHNAKTKPREEQYNSTYRVVSVLTVLHQDWLNGKEYKCKVSNKALPAPIEKTISKAKGQPREPQVYTLPPSRDELTKNQVSLTCLVKGFYPSDIAVEWESNGQPENNYKTTPPVLDSDGSFFLYSKLTVDKSRWQQGNVFSCSVMHEALHWHYTQKSLSLSP
light: not shown
notes: EU numbering; copies: 2 + 2
In turn, B5 yielded a Kd of 100 nM.

B6: IgG1-F74 (antibody)
heavy: QVQLQESGPGLVKPSETLSLTCAVSGHSISHDHAWSWVRQPPGEGLEWIGFISYSGITNYNPSLQGRVTISRDNSKNTLYLQMNSLRAEDTAVYYCARSLARTTAMDYWGEGTLVTVSSASTKGPSVFPLAPSSKSTSGGTAALGCLVKDYFPEPVTVSWNSGALTSGVHTFPAVLQSSGLYSLSSVVTVPSSSLGTQTYICNVNHKPSNTKVDKKVEPKSCDKTHTCPPCPAPELLGGPSVFLFPPKPKDTLYISRTPEVTCVVVDVSHEDPEVKFNWYVDGVEVHNAKTKPREEQYNSTYRVVSVLTVLHQDWLNGKEYKCKVSNKALPAPIEKTISKAKGQPREPQVYTLPPSRDELTKNQVSLTCLVKGFYPSDIAVEWESNGQPENNYKTTPPVLDSDGSFFLYSKLTVDKSRWQQGNVFSCSVLHEALHYHYTQKSLSLSP
light: not shown
notes: EU numbering; copies: 2 + 2
Regarding B6, binding was characterised by a dissociation constant (Kd) of 460 nM.

B7: IgG1-F39 (antibody)
heavy: QVQLQESGPGLVKPSETLSLTCAVSGHSISHDHAWSWVRQPPGEGLEWIGFISYSGITNYNPSLQGRVTISRDNSKNTLYLQMNSLRAEDTAVYYCARSLARTTAMDYWGEGTLVTVSSASTKGPSVFPLAPSSKSTSGGTAALGCLVKDYFPEPVTVSWNSGALTSGVHTFPAVLQSSGLYSLSSVVTVPSSSLGTQTYICNVNHKPSNTKVDKKVEPKSCDKTHTCPPCPAPELLGGPSVFLFPPKPKDTLYITRTPEVTCVVVDVSHEDPEVKFNWYVDGVEVHNAKTKPREEQYNSTYRVVSVLTVLHQDWLNGKEYKCKVSNKALPAPIEKTISKAKGQPREPQVYTLPPSRDELTKNQVSLTCLVKGFYPSDIAVEWESNGQPENNYKTTPPVLDSDGSFFLYSKLTVDKSRWQQGNVFSCSVMHEALHYHYTQKSLSLSP
light: not shown
notes: EU numbering; copies: 2 + 2
Turning to B7, binding was put at a Kd of 300 nM.

B8: IgG1-F75 (antibody)
heavy: QVQLQESGPGLVKPSETLSLTCAVSGHSISHDHAWSWVRQPPGEGLEWIGFISYSGITNYNPSLQGRVTISRDNSKNTLYLQMNSLRAEDTAVYYCARSLARTTAMDYWGEGTLVTVSSASTKGPSVFPLAPSSKSTSGGTAALGCLVKDYFPEPVTVSWNSGALTSGVHTFPAVLQSSGLYSLSSVVTVPSSSLGTQTYICNVNHKPSNTKVDKKVEPKSCDKTHTCPPCPAPELLGGPSVFLFPPKPKDTLYISRTPEVTCVVVDVSHEDPEVKFNWYVDGVEVHNAKTKPREEQYNSTYRVVSVLTVLHQDWLNGKEYKCKVSNKALPAPIEKTISKAKGQPREPQVYTLPPSRDELTKNQVSLTCLVKGFYPSDIAVEWESNGQPENNYKTTPPVLDSDGSFFLYSKLTVDKSRWQQGNVFSCSVLHEALHAHYTQKSLSLSP
light: not shown
notes: EU numbering; copies: 2 + 2
For the molecule B8, the Kd turned out to be 1400 nM.

B9: IgG1-F78 (antibody)
heavy: QVQLQESGPGLVKPSETLSLTCAVSGHSISHDHAWSWVRQPPGEGLEWIGFISYSGITNYNPSLQGRVTISRDNSKNTLYLQMNSLRAEDTAVYYCARSLARTTAMDYWGEGTLVTVSSASTKGPSVFPLAPSSKSTSGGTAALGCLVKDYFPEPVTVSWNSGALTSGVHTFPAVLQSSGLYSLSSVVTVPSSSLGTQTYICNVNHKPSNTKVDKKVEPKSCDKTHTCPPCPAPELLGGPSVFLFPPKPKDTLMITRTPEVTCVVVDVSHEDPEVKFNWYVDGVEVHNAKTKPREEQYNSTYRVVSVLTVLHQDWLNGKEYKCKVSNKALPAPIEKTISKAKGQPREPQVYTLPPSRDELTKNQVSLTCLVKGFYPSDIAVEWESNGQPENNYKTTPPVLDSDGSFFLYSKLTVDKSRWQQGNVFSCSVLHEALHWHYTQKSLSLSP
light: not shown
notes: EU numbering; copies: 2 + 2
B9 yielded a Kd of 780 nM.

B10: IgG1-F73 (antibody)
heavy: QVQLQESGPGLVKPSETLSLTCAVSGHSISHDHAWSWVRQPPGEGLEWIGFISYSGITNYNPSLQGRVTISRDNSKNTLYLQMNSLRAEDTAVYYCARSLARTTAMDYWGEGTLVTVSSASTKGPSVFPLAPSSKSTSGGTAALGCLVKDYFPEPVTVSWNSGALTSGVHTFPAVLQSSGLYSLSSVVTVPSSSLGTQTYICNVNHKPSNTKVDKKVEPKSCDKTHTCPPCPAPELLGGPSVFLFPPKPKDTLYISRTPEVTCVVVDVSHEDPEVKFNWYVDGVEVHNAKTKPREEQYNSTYRVVSVLTVLHQDWLNGKEYKCKVSNKALPAPIEKTISKAKGQPREPQVYTLPPSRDELTKNQVSLTCLVKGFYPSDIAVEWESNGQPENNYKTTPPVLDSDGSFFLYSKLTVDKSRWQQGNVFSCSVLHEALHWHYTQKSLSLSP
light: not shown
notes: EU numbering; copies: 2 + 2
B10: the Kd worked out at 170 nM.

B11: IgG1-F80 (antibody)
heavy: QVQLQESGPGLVKPSETLSLTCAVSGHSISHDHAWSWVRQPPGEGLEWIGFISYSGITNYNPSLQGRVTISRDNSKNTLYLQMNSLRAEDTAVYYCARSLARTTAMDYWGEGTLVTVSSASTKGPSVFPLAPSSKSTSGGTAALGCLVKDYFPEPVTVSWNSGALTSGVHTFPAVLQSSGLYSLSSVVTVPSSSLGTQTYICNVNHKPSNTKVDKKVEPKSCDKTHTCPPCPAPELLGGPSVFLFPPKPKDTLYISRQPEVTCVVVDVSHEDPEVKFNWYVDGVEVHNAKTKPREEQYNSTYRVVSVLTVLHQDWLNGKEYKCKVSNKALPAPIEKTISKAKGQPREPQVYTLPPSRDELTKNQVSLTCLVKGFYPSDIAVEWESNGQPENNYKTTPPVLDSDGSFFLYSKLTVDKSRWQQGNVFSCSVMHEALHAHYTQKSLSLSP
light: not shown
notes: EU numbering; copies: 2 + 2
As for B11, the Kd was 2700 nM.

B12: IgG1-F76 (antibody)
heavy: QVQLQESGPGLVKPSETLSLTCAVSGHSISHDHAWSWVRQPPGEGLEWIGFISYSGITNYNPSLQGRVTISRDNSKNTLYLQMNSLRAEDTAVYYCARSLARTTAMDYWGEGTLVTVSSASTKGPSVFPLAPSSKSTSGGTAALGCLVKDYFPEPVTVSWNSGALTSGVHTFPAVLQSSGLYSLSSVVTVPSSSLGTQTYICNVNHKPSNTKVDKKVEPKSCDKTHTCPPCPAPELLGGPSVFLFPPKPKDTLYITREPEVTCVVVDVSHEDPEVKFNWYVDGVEVHNAKTKPREEQYNSTYRVVSVLTVLHQDWLNGKEYKCKVSNKALPAPIEKTISKAKGQPREPQVYTLPPSRDELTKNQVSLTCLVKGFYPSDIAVEWESNGQPENNYKTTPPVLDSDGSFFLYSKLTVDKSRWQQGNVFSCSVLHEALHAHYTQKSLSLSP
light: not shown
notes: EU numbering; copies: 2 + 2
The molecule B12 displayed a Kd of 1000 nM.
